This is an account of results in US20240166765A1 (ICONIC THERAPEUTICS, published 2024).

In one test the target is T1, rabbit TF-His (rabbit (Oryctolagus cuniculus), UniProt P24055 33-250).
T1 construct: also called rabbit TF ECD-His
Nature of the test: SPR (Biacore), antibody captured by anti-human IgG on CM5 chip, rabbit TF-His in solution, 1:1 model. In general terms: Surface plasmon resonance follows binding to a sensor surface in real time, without labels.

A further test deals with T2, pig TF-His (pig (Sus scrofa)).
T2 construct: also called pig TF ECD-His; pTF
T2 chain: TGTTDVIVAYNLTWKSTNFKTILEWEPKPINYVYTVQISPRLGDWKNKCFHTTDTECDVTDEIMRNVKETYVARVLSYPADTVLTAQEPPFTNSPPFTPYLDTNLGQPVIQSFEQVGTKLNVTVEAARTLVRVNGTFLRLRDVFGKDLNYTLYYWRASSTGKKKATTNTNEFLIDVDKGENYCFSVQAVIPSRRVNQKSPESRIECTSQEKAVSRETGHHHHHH
In words: SPR (Biacore), antibody captured by anti-human IgG on CM5 chip, pig TF-His in solution, 1:1 model.

The target in test [1] is T3, human Tissue Factor on MDA-MB-231 cells (human, UniProt P13726 33-295).
T3 construct: also called TF; hTF
Nature of the test: flow cytometry, MDA-MB-231 cells; binding of 20 nM FVII-Fc-Alexa488 (competitor) left at 83 nM Ab. (In flow cytometry, cells or beads pass a laser one at a time.)

In test [2] the target is T3, human Tissue Factor on MDA-MB-231 cells. Nature of the test: flow cytometry, MDA-MB-231 cells; binding of 20 nM FVII-Fc-Alexa488 (competitor) left at 250 nM Ab.
For test [3] the target is unchanged. Nature of the test: flow cytometry, MDA-MB-231 cells; binding of 20 nM FVII-Fc-Alexa488 (competitor) left at 9.25 nM Ab.
For test [4] the target is unchanged. Nature of the test: cell-based or functional assay.
The target in test [5] is T4, human Tissue Factor (hTF), endogenously expressed on human TF-positive cells (human, UniProt P13726 33-295).
T4 construct: also called CD142
Nature of the test: flow cytometry competition on A431 cells, 100 nM unlabelled antibody, competitor 20 nM 43Ea-Alexa488.

Test [6] addresses T4, human Tissue Factor (hTF), endogenously …. In words: cell-based or functional assay.
The target is the same in test [7]. Nature of the test: flow cytometry competition on A431 cells, 100 nM unlabelled antibody, competitor 20 nM 25A-Alexa488.
Test [8] concerns the target T5, E. coli-derived TF ECD-His6 (Homo sapiens (Human), UniProt P13726 33-251).
T5 construct: The OmpA signal is not part of that entry; also called E.coli-derived TF protein; E. coli-derived TF-His
In words: protein ELISA, plate coated with E. coli-derived TF-His. (An ELISA detects its analyte on a solid surface through an enzyme-linked reagent.)

Test [9] addresses T6, Macaca mulatta TF on RF/6A cells (Macaca mulatta, UniProt P13726 33-294 (human entry)).
T6 construct: also called TF-positive Macaca mulatta RF/6A cells; cynomolgus TF (cTF)
T6 chain: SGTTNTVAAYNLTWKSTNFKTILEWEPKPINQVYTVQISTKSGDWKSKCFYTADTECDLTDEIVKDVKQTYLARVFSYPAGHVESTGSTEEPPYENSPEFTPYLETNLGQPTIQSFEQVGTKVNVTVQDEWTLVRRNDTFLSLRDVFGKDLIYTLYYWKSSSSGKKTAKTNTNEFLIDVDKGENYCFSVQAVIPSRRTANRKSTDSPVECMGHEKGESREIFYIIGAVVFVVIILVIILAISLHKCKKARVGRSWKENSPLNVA
Nature of the test: flow cytometry on Macaca mulatta RF/6A cells.

Test [10] addresses T7, Expi293-derived human TF ECD-His6 (TF-His) (human, UniProt P13726 33-251).
T7 construct: Glycosylated TF ECD-His6 made in Expi293 cells and coated on ELISA plates; also called Expi293-derived TF protein
In words: protein ELISA, plate coated with Expi293-derived TF-His.

T1 sequence (P24055 other isoform, or with tags, fused parts or gaps): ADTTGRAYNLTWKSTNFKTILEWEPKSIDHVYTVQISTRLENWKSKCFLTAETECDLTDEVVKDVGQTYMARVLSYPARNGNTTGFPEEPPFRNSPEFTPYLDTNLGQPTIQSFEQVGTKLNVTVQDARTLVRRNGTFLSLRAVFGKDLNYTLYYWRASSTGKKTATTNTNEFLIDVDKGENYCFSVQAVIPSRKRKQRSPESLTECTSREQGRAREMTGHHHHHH

B1: 43D7 (antibody, human IgG1, kappa, V domains shown)
VH: QVQLQQWGAGLLKPSETLSLTCAVYGGSLSGYYWSWIRQPPGKGLEWIGEIGASGSTRYNPSLKSRVTISVDTSKNQFSLKLSSVTAADTAVYYCARDTPYYYEGGYYYYMDVWGKGTTVTVSS
VL: EIVLTQSPGTLSLSPGERATLSCRASDSVDSSYLAWYQQKPGQAPRLLIYGAFSRANGIPDRFSGSGSGTDFTLTISRLEPEDFAVYYCQQAGVVPYTFGGGTKVEIKR
notes: Human IgG1; also called antibody 43D7
In general, Kd refers to the constant that tells how readily two partners part at equilibrium. As to B1, the Kd with rabbit TF-His stood at 6.8 nM; with pig TF-His, 8.8 nM.

B2: 43D8 (antibody, human IgG1, kappa, V domains shown)
VH: QVQLQQWGAGLLKPSETLSLTCAVYGGSLSGYYWSWIRQPPGKGLEWIGEIGASGSTRYNPSLKSRVTISVDTSKNQFSLKLSSVTAADTAVYYCARDTPYYYEGGYYYYMDVWGKGTTVTVSS
VL: EIVLTQSPGTLSLSPGERATLSCRASQSVSSSFLAWYQQKPGQAPRLLIYGAYSRATGIPDRFSGSGSGTDFTLTISRLEPEDFAVYYCQQAGVVPYTFGGGTKVEIKR
notes: Human IgG1; also called antibody 43D8; 43D8 mAb
As for B2, the dissociation constant Kd with rabbit TF-His amounted to 7.7 nM; with pig TF-His, 19.2 nM.

B3: 25A (antibody, V domains shown)
VH: QVQLVQSGAEVKKPGASVKVSCKASGYTFDVYGISWVRQAPGQGLEWMGWIAPYNGNTNYAQKLQGRVTMTTDTSTSTAYMELRSLRSDDTAVYYCARDAGTYSPFGYGMDVWGQGTTVTVSS
VL: DIQMTQSPSTLSASVGDRVTITCRASQSISSWLAWYQQKPGKAPKLLIYKASSLESGVPSRFSGSGSGTEFTLTISSLQPDDFATYYCQQFQSLPPFTFGGGTKVEIK
notes: Human anti-TF IgG1
Take B3: in test [1], the “% FVIIa” value stood at 97%. Further, the “% FVIIa” value in test [2] amounted to 98%. The “% FVIIa” value in test [3] came out at 100%. In [4], the “% IL8, 2.56 nM Ab” value is 43%; the “% IL8, 6.4 nM Ab” value was determined as 11%; the “% IL8, 16 nM Ab” value was found to be 10%; the “% IL8, 40 nM Ab” value is 8%. Also, the “% IL8, 100 nM Ab” value in test [4] is 9%.

B4: anti-TF antibody 25G (antibody, human IgG1, kappa, V domains shown)
VH: QVQLVQSGAEVKKPGASVKVSCKASGYTFRSYGISWVRQAPGQGLEWMGWVAPYNGNTNYAQKLQGRVTMTTDTSTSTAYMELRSLRSDDTAVYYCARDAGTYSPYGYGMDVWGQGTTVTVSS
VL: DIQMTQSPSTLSASVGDRVTITCRASQSISSWLAWYQQKPGKAPKLLIYKASSLESGVPSRFSGSGSGTEFTLTISSLQPDDFATYYCQQFQSLPPFTFGGGTKVEIKR
notes: Human IgG1
Turning to B4, the “% 43Ea binding” value in test [5] turned out to be 3%. Moreover, in test [6], the “% GM-CSF, 2.56 nM antibody, MDA-MB-231 cells + FVIIa” value is 77%; the “% GM-CSF, 6.4 nM antibody, MDA-MB-231 cells + FVIIa” value came to 39%; the “% GM-CSF, 16 nM antibody, MDA-MB-231 cells + FVIIa” value worked out at 32%; the “% GM-CSF, 40 nM antibody, MDA-MB-231 cells + FVIIa” value is 18%. In [6], the “% GM-CSF, 100 nM antibody, MDA-MB-231 cells + FVIIa” value was 19%. In addition, the “% 25A binding” value in [7] was determined as 7%.

B5: 25A (antibody, human IgG1, V domains shown)
VH: QVQLVQSGAEVKKPGASVKVSCKASGYTFDVYGISWVRQAPGQGLEWMGWIAPYNGNTNYAQKLQGRVTMTTDTSTSTAYMELRSLRSDDTAVYYCARDAGTYSPFGYGMDVWGQGTTVTVSS
VL: DIQMTQSPSTLSASVGDRVTITCRASQSISSWLAWYQQKPGKAPKLLIYKASSLESGVPSRFSGSGSGTEFTLTISSLQPDDFATYYCQQFQSLPPFTFGGGTKVEIK
notes: Human IgG1; also called antibody 25A
As to B5, the Kd is 50.5 nM with rabbit TF-His and 18.7 nM in the test with pig TF-His.

B6: 25G (antibody, human IgG1, kappa, V domains shown)
VH: QVQLVQSGAEVKKPGASVKVSCKASGYTFRSYGISWVRQAPGQGLEWMGWVAPYNGNTNYAQKLQGRVTMTTDTSTSTAYMELRSLRSDDTAVYYCARDAGTYSPYGYGMDVWGQGTTVTVSS
VL: DIQMTQSPSTLSASVGDRVTITCRASQSISSWLAWYQQKPGKAPKLLIYKASSLESGVPSRFSGSGSGTEFTLTISSLQPDDFATYYCQQFQSLPPFTFGGGTKVEIKR
notes: Human IgG1; also called antibody 25G
In the case of B6, the results for the Kd in the test with rabbit TF-His and with pig TF-His were 75.5 nM and 26 nM, respectively.

B7: anti-TF antibody 25A3 (antibody, human IgG1, kappa, V domains shown)
VH: QVQLVQSGAEVKKPGASVKVSCKASGYTFDVYGISWVRQAPGQGLEWMGWIAPYSGNTNYAQKLQGRVTMTTDTSTSTAYMELRSLRSDDTAVYYCARDAGTYSPFGYGMDVWGQGTTVTVSS
VL: DIQMTQSPSTLSASVGDRVTITCQASQSINNWLAWYQQKPGKAPKLLIYKAYNLESGVPSRFSGSGSGTEFTLTISSLQPDDFATYYCQLFQSLPPFTFGGGTKVEIKR
notes: Human IgG1
For orientation: EC50 means the concentration that produces a half-maximal response. Consider B7, for which the EC50 worked out at 0.36 nM in [8], 0.27 nM in test [9] and 0.47 nM in test [10].

B8: 25G9 (antibody, human IgG1, kappa, V domains shown)
VH: QVQLVQSGAEVKKPGASVKVSCKASGYTFRSYGISWVRQAPGQGLEWMGWVAPYSGNTNYAQKLQGRVTMTTDTSTSTAYMELRSLRSDDTAVYYCARDAGTYSPYGYGMDVWGQGTTVTVSS
VL: DIQMTQSPSTLSASVGDRVTITCQASQSIDSWLAWYQQKPGKAPKLLIYSASYLESGVPSRFSGSGSGTEFTLTISSLQPDDFATYYCQRFQSLPPFTFGGGTKVEIKR
notes: Human IgG1; also called antibody 25G9
Regarding B8, the Kd turned out to be 4.2 nM with rabbit TF-His and 3.3 nM with pig TF-His.

B9: 25A5 (antibody, human IgG1, kappa, V domains shown)
VH: QVQLVQSGAEVKKPGASVKVSCKASGYTFDVYGISWVRQAPGQGLEWMGWIAPYSGNTNYAQKLQGRVTMTTDTSTSTAYMELRSLRSDDTAVYYCARDAGTYSPFGYGMDVWGQGTTVTVSS
VL: DIQMTQSPSTLSASVGDRVTITCRASESISNWLAWYQQKPGKAPKLLIYKAYSLEYGVPSRFSGSGSGTEFTLTISSLQPDDFATYYCQQFQKLPPFTFGGGTKVEIKR
notes: Human IgG1; also called antibody 25A5
Regarding B9, the Kd in the test with rabbit TF-His stood at 5.4 nM; in the test with pig TF-His, 5.2 nM.

B10: anti-TF antibody 25G1 (antibody, human IgG1, kappa, V domains shown)
VH: QVQLVQSGAEVKKPGASVKVSCKASGYTFRSYGISWVRQAPGQGLEWMGWVAPYSGNTNYAQKLQGRVTMTTDTSTSTAYMELRSLRSDDTAVYYCARDAGTYSPYGYGMDVWGQGTTVTVSS
VL: DIQMTQSPSTLSASVGDRVTITCRASHSIDSWLAWYQQKPGKAPKLLIYKASYLESGVPSRFSGSGSGTEFTLTISSLQPDDFATYYCQLFQSLPPFTFGGGTKVEIKR
notes: Human IgG1
On to B10, for which the EC50 amounted to 0.31 nM in test [8], 0.27 nM in [9] and 0.42 nM in test [10]. In addition, the “% GM-CSF, 2.56 nM antibody, MDA-MB-231 cells + FVIIa” value in test [6] came out at 48%.

B11: 25A5-T (antibody, human IgG1, kappa, V domains shown)
VH: QVQLVQSGAEVKKPGASVKVSCKASGYTFDAYGISWVRQAPGQGLEWMGWIAPYSGNTNYAQKLQGRVTMTTDTSTSTAYMELRSLRSDDTAVYYCARDAGTYSPFGYGMDVWGQGTTVTVSS
VL: DIQMTQSPSTLSASVGDRVTITCRASESISNWLAWYQQKPGKAPKLLIYKAYSLEYGVPSRFSGSGSGTEFTLTISSLQPDDFATYYCQQFQKLPPFTFGGGTKVEIKR
notes: Human IgG1
Take B11: the Kd with rabbit TF-His is 5.4 nM; in the test with pig TF-His, 4.5 nM.

B12: 25G1 (antibody, human IgG1, kappa, V domains shown)
VH: QVQLVQSGAEVKKPGASVKVSCKASGYTFRSYGISWVRQAPGQGLEWMGWVAPYSGNTNYAQKLQGRVTMTTDTSTSTAYMELRSLRSDDTAVYYCARDAGTYSPYGYGMDVWGQGTTVTVSS
VL: DIQMTQSPSTLSASVGDRVTITCRASHSIDSWLAWYQQKPGKAPKLLIYKASYLESGVPSRFSGSGSGTEFTLTISSLQPDDFATYYCQLFQSLPPFTFGGGTKVEIKR
notes: Human IgG1; also called antibody 25G1
Turning to B12, the dissociation constant Kd with rabbit TF-His stood at 3.6 nM; with pig TF-His, 2.6 nM.
